Values of other authors in PMC10813780.

Molecular target: TLR4 (Homo sapiens) (UniProt O00206)
UniProt O00206, sequence (O00206 24-839): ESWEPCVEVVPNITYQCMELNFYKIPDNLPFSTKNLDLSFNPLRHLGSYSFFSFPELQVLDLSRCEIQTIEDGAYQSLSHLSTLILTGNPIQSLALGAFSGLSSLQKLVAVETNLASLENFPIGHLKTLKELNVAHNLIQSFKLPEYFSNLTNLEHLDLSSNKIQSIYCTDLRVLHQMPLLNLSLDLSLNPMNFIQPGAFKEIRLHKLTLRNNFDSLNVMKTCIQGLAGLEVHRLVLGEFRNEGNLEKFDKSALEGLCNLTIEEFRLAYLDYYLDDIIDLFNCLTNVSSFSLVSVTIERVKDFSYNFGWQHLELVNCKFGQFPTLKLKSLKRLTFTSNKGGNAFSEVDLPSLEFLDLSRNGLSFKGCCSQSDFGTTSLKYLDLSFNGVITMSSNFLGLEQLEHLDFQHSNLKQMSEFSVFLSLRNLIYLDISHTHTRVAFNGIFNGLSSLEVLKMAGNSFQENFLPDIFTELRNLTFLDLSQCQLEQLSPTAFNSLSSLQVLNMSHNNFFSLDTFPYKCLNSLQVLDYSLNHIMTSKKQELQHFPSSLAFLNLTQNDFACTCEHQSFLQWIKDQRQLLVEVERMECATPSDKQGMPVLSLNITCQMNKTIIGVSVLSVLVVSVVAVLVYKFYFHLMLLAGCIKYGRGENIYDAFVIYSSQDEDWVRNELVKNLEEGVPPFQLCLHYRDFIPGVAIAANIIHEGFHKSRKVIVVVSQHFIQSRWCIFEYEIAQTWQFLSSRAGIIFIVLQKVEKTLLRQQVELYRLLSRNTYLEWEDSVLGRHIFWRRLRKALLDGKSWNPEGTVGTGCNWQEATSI

In the case of API5 (from UniProt Q9BZZ5), the Kd is given as 430 nM.
